The nature of data set [1]: Release of aminopterin in human hepatic cytosol. Particulars: 5% human liver cytosol, 1 hour; for pH dependence of aminopterin release from the conjugate: pH 4.5, 6.0, 7.4, 37° C. Type of data set: in vitro ADME. How it is done: (§1) EC2319 and EC1669 were incubated in 5% rat, dog, and human hepatic cytosol at different pH's to look at release of aminopterin from these conjugates. Liver cytosols from male Sprague-Dawley rats (Lot No. 1110428), male beagle dogs (Lot no. 1310024), and male humans (Lot No. 0710493), all containing 10 mg/mL protein, were obtained from Xenotech LLC (Lenexa, Kans.). These were diluted 20× in either 0.5 M sodium acetate buffer, pH 4.5, 0.5 M sodium acetate buffer, 6.0, or 0.5 M potassium phosphate buffer, pH 7.4 in a final volume of 500 μL. Reactions were initiated by the addition of 1 μL of either EC2319 or EC1669 and the reaction mixtures incubated at 37° C. for 1 hour. At the end of the incubation, a 100 μL aliquot was withdrawn into a cluster tube and the reaction was terminated by the addition of 5 μL of stabilizer solution (containing 8.5 mg/ml N-Maleoyl-β-alanine, 20 mg/mL mannitol and 0.075% acetic acid) and 100 μL of acetonitrile containing d5-aminopterin. The tubes were vortexed and then centrifuged at 4000 rpm for 10 minutes (Eppendorf centrifuge 5810R). 150 μL of the supernatant was transferred to 96-well plates and the acetonitrile evaporated off under nitrogen at 35° C. for 5 minutes. The extract was diluted with 50 μL of mobile phase A. The plate was vortexed on a VX-2500 multi-tube vortexer (VWR International, Radnor, Pa.) and the extract analyzed by LC-MS/MS.

Data set [2] has as its system Rat adjuvant arthritis (AIA). Put plainly: Rat adjuvant arthritis (AIA) treatment studies. It is filed as in vivo. The protocol: Female Lewis rats (175-200 g) were purchased from Harlan Sprague Dawley (Indianapolis, Ind.) and allowed to acclimate for 1 week. Generally, rats were fed a folate-deficient diet (Harlan Teklad) for 9-10 days prior to arthritis induction.
Rat adjuvant arthritis (AIA) was induced by intradermal inoculation (at the base of tail) of 0.45-0.46 mg of heat-killed Mycobacteria butyricum (BD Diagnostic Systems, Sparks, Md.) in 100 μL light mineral oil (Sigma). […] During the course of disease development, animals were weighed at least 3 times a week. Paw edema (degree of arthritis) were scored 3 times a week as follows: 0=no edema or arthritis; 1=swelling in one type of joint; 2=swelling in two types of joint; 3=swelling in three types of joint; 4=swelling of the entire paw. A total score for each rat is calculated by adding up the scores for each of the four paws, giving a maximum of 16 per animal.
On the first day of treatment, rats with desired arthritis scores were distributed evenly across the control and treatment groups (n=5). […] All compounds and conjugates were administered subcutaneously (s.c.) starting 9 days after arthritis induction with biweekly (BIW, Mondays and Thursdays) or once-a-week (QW, Mondays) dosing for two consecutive weeks. At the completion of each study (˜4 days after the last treatment), rats were euthanized by CO2 asphyxiation and processed for paw weight (cut at the hairline) and spleen weight.
The rat AIA model resembles many characteristics of human rheumatoid arthritis and it is very aggressive. […] The animals in the AIA control group were left untreated.

The nature of another data set: Pharmacokinetics in dogs. The note with it: beagle, dog, in vivo. The protocol: (§2) The samples were centrifuged under refrigeration for at least 10 minutes at 3000 rpm and the plasma generated stored at −20° C. until LC-MS/MS analysis.
as §2
LC-MS/MS analysis utilized a Waters Acquity UPLC system paired with a Waters Quattro Premier XE tandem quadrupole mass spectrometer operating in ESI positive mode. Prior to injection, K3EDTA plasma samples were processed using a Phenomenex Strata X-A solid phase extraction (SPE) plate. All plasma samples were fortified with N-Maleoyl-β-alanine, mannitol, and acetic acid. Briefly, 50 μL of plasma diluted with 50 μL of internal standard solution and 500 μL 1000:4:1.5 water:ammonium hydroxide:formic acid was mixed and loaded onto a preconditioned Strata X-A SPE plate. Aqueous and organic washes were then applied followed by elution of all analytes with 300:200:7.5 methanol:water:formic acid. The samples were evaporated until approximately 30 μL remained in all wells and 30 μL of 9:1 water:ammonium hydroxide was then added. Finally, the plate was sealed, mixed, and centrifuged prior to transfer to the 2-8° C. Acquity autosampler. Note: During EC1669 analysis, EC0470 was converted to a hydrazone product for bioanalysis. Acetone (500 μL) was added to all samples after the first evaporation step followed by sealing all wells and heating at 50° C. for one hour. After this step, the acetone was evaporated and the extraction completed as described above.
A 10 μL sample volume was applied to the Waters BEH Shield RP18 100×2.1 mm, […] UPLC column operating at a flow rate of 0.4 mL/min while being maintained at 45° C. A gradient between mobile phase A (1000:4:1.5 water:ammonium hydroxide:formic acid) and mobile phase B (acetonitrile) was used to separate the analytes. The gradient was held at 2% B for the first 30 seconds of the chromatographic run followed by increasing to 20% B by 2.5 minutes. A rapid gradient from 60-90% B is then used to clean the column prior to equilibration at 2% B to complete the 4 minute run cycle.
For EC1669 MS/MS analysis, EC1669 and its known major metabolites, EC1886 and […], were optimized and monitored. […] In all cases, internal standard response was used to generate response ratios for each analyte. When calibrated, data was regressed using MassLynx 4.1 software. The table below lists transitions for analytes and internal standards monitored for LC-MS/MS bioanalysis.

A short description of data set [3]: Incubation with THP-1 FRβ cell lysates. It is filed as in vitro ADME, human. The note with it: THP-1 FRβ lysate, pH 4.5, 37° C., 2 hours. The protocol:
To 100 μL AIA rat macrophage, RAW264.7 or THP-1 FRβ cell lysates (each containing 10 million cells/mL 0.1 M sodium acetate, Ph 4.5) was added 2 μL of a 50 μM solution of EC2319 or EC1669 (Endocyte, Inc.). The solutions were incubated at 37° C. in a heat block (VWR International, Radnor, Pa.) for 2 hours. The reaction was terminated by the addition of 5 µL of stabilizer solution and 100 μL of acetonitrile containing d5-aminopterin (Endocyte, Inc.). The rest of the workup is as described above.

Data set [4] is described as follows: Release of aminopterin in rat hepatic cytosol. It is filed as in vitro ADME. Particulars: 5% rat liver cytosol, 1 hour; for pH dependence of aminopterin release from the conjugate: pH 4.5, 6.0, 7.4, 37° C. How it is done:
as §1

Molecules are shown by their SMILES.

Turning to `N=c1[nH]c(N)nc2ncc(CNc3ccc(C(=O)N[C@@H](CCC(=O)NNC(=O)OCCSSC[C@@H](NC(=O)[C@H](CCC(=O)NC[C@H](O)[C@@H](O)[C@H](O)[C@H](O)CO)NC(=O)[C@@H](CCC(=O)O)NC(=O)[C@H](CCC(=O)NC[C@H](O)[C@@H](O)[C@H](O)[C@H](O)CO)NC(=O)[C@@H](CCC(=O)O)NC(=O)[C@H](CCC(=O)NC[C@H](O)[C@@H](O)[C@H](O)[C@H](O)CO)NC(=O)CC[C@H](NC(=O)c4ccc(NCc5cnc6nc(N)[nH]c(=O)c6n5)cc4)C(=O)O)C(=O)O)C(=O)O)cc3)nc12` [EC1669, reference compound], the “pH dependence of aminopterin release from the conjugate” value (“pH dependence of aminopterin release” for short) in data set [1] is “highest at pH 4.5”. Further, in data set [2] (Study 2, 500 nmol/kg, BIW), the body weight entry is “maintained a healthier body weight than EC2285” and the residual disease entry is listed as “minimal residual diseases”. In addition, in data set [2] (Study 3, 500 nmol/kg, BIW), the anti-arthritic activity result is “significant anti-arthritic activity” and the body weight result is given as “maintained a good body weight”. Further, in “Pharmacokinetics in dogs” (sc, 2.4 mg/kg), the AUC(0-t) came out at 4.07 µM·h, the Cmax was 1390 nM, the time to peak (Tmax) stood at 1.19 h and the half-life was 0.994 h. For the same compound, the aminopterin release entry in data set [3] is listed as “greater from EC1669 than from EC2319”. In addition, the “pH dependence of aminopterin release” value in data set [4] is “broad pH specificity”.

Consider `COC(=O)[C@H](CSSC(C)(C)[C@H](NC(=O)[C@H](CCC(=O)NC[C@H](O)[C@@H](O)[C@H](O)[C@H](O)CO)NC(=O)[C@H](CCC(=O)O)NC(=O)[C@H](CCC(=O)NC[C@H](O)[C@@H](O)[C@H](O)[C@H](O)CO)NC(=O)[C@H](CCC(=O)O)NC(=O)[C@H](CCC(=O)NC[C@H](O)[C@@H](O)[C@H](O)[C@H](O)CO)NC(=O)CC[C@H](NC(=O)c1ccc(NCc2cnc3nc(N)[nH]c(=O)c3n2)cc1)C(=O)O)C(=O)O)NC(=O)CC[C@H](NC(=O)c1ccc(NCc2cnc3nc(N)nc(N)c3n2)cc1)C(=O)O` [EC2319], for which the “magnitude of aminopterin release” value in data set [1] (37° C.) is “lower than that from EC1669”. Moreover, the “pH dependence of aminopterin release” value in data set [1] is given as “highest at pH 4.5”. Moreover, the “alleviating AIA symptoms (arthritis score, paw weight, spleen weight)” value in data set [2] (Study 1, 1000 nmol/kg, QW, s.c., two consecutive weeks) was “as effective as EC1669, EC2285, and EC2318”. Besides, in data set [2] (Study 2, 500 nmol/kg BIW plus 500-fold molar excess EC0923 (250 μmol/kg)), the “anti-arthritic activity with concurrent EC0923 (arthritis score, paw weight, spleen weight, body weight)” value is “fully blocked by EC0923”. Besides, in data set [2] (Study 2, 500 nmol/kg, BIW), the body weight result was “maintained a healthier body weight than EC2285” and the residual disease entry is “minimal residual diseases”. Further, the “reducing arthritis scores and paw weights” value in data set [2] (Study 2, 500 nmol/kg, BIW, s.c., two consecutive weeks) was “equally efficacious as EC1669 but significantly more active than EC2285”. Also, in data set [2] (Study 3, 500 nmol/kg, BIW), the anti-arthritic activity result is listed as “significant anti-arthritic activity” and the body weight entry was “maintained a good body weight”. For the same compound, the “decreasing arthritis score, paw weight, and spleen weight” value in data set [2] (Study 3, 500 nmol/kg, BIW, two consecutive weeks) is recorded as “as efficacious as EC1669”. Moreover, the bioavailability in “Pharmacokinetics in dogs” (male, 2.43 mg/kg) is 133%. In “Pharmacokinetics in dogs” (male, iv, 1 mg/kg), the time to peak (Tmax) stood at 0.03 h, the volume of distribution (Vd) is 0.41 L/kg, the clearance is 4.7 mL/min/kg and the half-life was 1.01 h. In the data set “Pharmacokinetics in dogs” (male, sc, 2.43 mg/kg), the AUC(0-t) was found to be 5.07 µM·h and the half-life is 1.21 h. Further, the aminopterin release result in data set [3] is “aminopterin release was observed”. The “magnitude of aminopterin release” value in data set [4] (37° C.) is given as “lower than that from EC1669”. Also, in data set [4], the “pH dependence of aminopterin release” value was “broad pH specificity”.

The values above are taken from patent US20180280528A1, “ANTIFOLATE CONJUGATES FOR TREATING INFLAMMATION” (ENDOCYTE, INC., priority 2015, published 2018).
